# Changes are numbered by the printed parent chain. In names and notes the source's numbering stands.
# T1: PUF4 RNA-binding domain (Saccharomyces cerevisiae, UniProt P25339 537-888)
# T1 sequence: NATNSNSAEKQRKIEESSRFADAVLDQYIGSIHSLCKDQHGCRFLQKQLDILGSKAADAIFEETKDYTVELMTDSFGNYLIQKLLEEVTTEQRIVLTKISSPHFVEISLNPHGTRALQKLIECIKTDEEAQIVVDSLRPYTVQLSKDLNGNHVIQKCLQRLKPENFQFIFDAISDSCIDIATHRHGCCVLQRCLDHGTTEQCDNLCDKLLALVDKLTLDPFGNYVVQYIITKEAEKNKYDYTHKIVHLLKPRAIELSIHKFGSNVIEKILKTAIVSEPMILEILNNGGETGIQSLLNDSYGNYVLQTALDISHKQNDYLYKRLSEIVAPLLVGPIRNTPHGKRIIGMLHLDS
# B1: Ic_S2_P5E.1_K5.1_C5.1_H5.1_A5.1_[T5C]_[A7T]_F5.1_[T8C]_[T9C]_[A10C]_T5.1 (ssRNA)
# RNA: UUUGAUUAAUAUGAUAUCGUUCUUUCUUGUACUUCCCUUCUUUCUCGAUAUCAUAUUAAUCUUU
# B2: Ic_S2_P5E.1_K5.1_C5.1_H5.1_A5.1_[T6G]_[A7G]_F5.1_[T8C]_[A10C]_T5.1 (ssRNA)
# RNA: B1 RNA with C32U, U33G, U34G, C36U
# B3: Ic_S2_P5E.1_K5.1_C5.1_H5.1_A5.1_[T5G]_[T6C]_[A7C]_F5.1_[T8C]_[T9A]_[A10T]_T5.1 (ssRNA)
# RNA: B1 RNA with C32G, U33C, U34C, C36A, C37U
# B4: Ic_S2_P5E.1_K5.1_C5.1_H5.1_A5.1_[T6C]_F5.1_[T8G]_[T9C]_[A10C]_T5.1 (ssRNA)
# RNA: B1 RNA with C32U, U33C, U34A, C35G
# B5: Ic_S2_P5E.1_K5.1_C5.1_H5.1_A5.1_[T5G]_F5.1_[T8A]_[A10T]_T5.1 (ssRNA)
# RNA: B1 RNA with C32G, U34A, C35A, C36U, C37U
# B6: Ic_S2_P5E.1_K5.1_C5.1_H5.1_A5.1_[T6C]_[A7G]_F5.1_[T8C]_[T9C]_[A10T]_T5.1 (ssRNA)
# RNA: B1 RNA with C32U, U33C, U34G, C37U
# B7: Ic_S2_P5E.1_K5.1_C5.1_H5.1_A5.1_[T5C]_[T6A]_[A7T]_F5.1_[T8C]_[T9G]_[A10G]_T5.1 (ssRNA)
# RNA: B1 RNA with U33A, C36G, C37G
# B8: Ic_S2_P5E.1_K5.1_C5.1_H5.1_A5.1_[T6A]_[A7C]_F5.1_[T8C]_[T9G]_[A10G]_T5.1 (ssRNA)
# RNA: B1 RNA with C32U, U33A, U34C, C36G, C37G
# B9: Ic_S2_P5E.1_K5.1_C5.1_H5.1_A5.1_[T5C]_[T6G]_[A7C]_F5.1_[T8C]_[T9C]_T5.1 (ssRNA)
# RNA: B1 RNA with U33G, U34C, C37A
# B10: Ic_S2_P5E.1_K5.1_C5.1_H5.1_A5.1_[T6C]_[A7T]_F5.1_[T8A]_[T9C]_[A10G]_T5.1 (ssRNA)
# RNA: B1 RNA with C32U, U33C, C35A, C37G
# B11: Ic_S2_P5E.1_K5.1_C5.1_H5.1_A5.1_[T5C]_[A7C]_F5.1_[T9C]_[A10T]_T5.1 (ssRNA)
# RNA: B1 RNA with U34C, C35U, C37U
# B12: Ic_S2_P5E.1_K5.1_C5.1_H5.1_A5.1_[T5G]_[A7T]_F5.1_[T8C]_[A10T]_T5.1 (ssRNA)
# RNA: B1 RNA with C32G, C36U, C37U
# B13: Ic_S2_P5E.1_K5.1_C5.1_H5.1_A5.1_[T5A]_[T6C]_[A7T]_F5.1_[T8A]_[T9A]_T5.1 (ssRNA)
# RNA: B1 RNA with C32A, U33C, C35A, C36A, C37A
# B14: Ic_S2_P5E.1_K5.1_C5.1_H5.1_A5.1_[T5A]_[T6A]_[A7T]_F5.1_[T8A]_[T9C]_[A10G]_T5.1 (ssRNA)
# RNA: B1 RNA with C32A, U33A, C35A, C37G
# B15: Ic_S2_P5E.1_K5.1_C5.1_H5.1_A5.1_[T5C]_F5.1_[T8A]_[T9C]_[A10C]_T5.1 (ssRNA)
# RNA: B1 RNA with U34A, C35A
# B16: Ic_S2_P5E.1_K5.1_C5.1_H5.1_A5.1_[T6G]_[A7T]_F5.1_[T8C]_[T9A]_[A10T]_T5.1 (ssRNA)
# RNA: B1 RNA with C32U, U33G, C36A, C37U
# B17: Ic_S2_P5E.1_K5.1_C5.1_H5.1_A5.1_[T5A]_[T6A]_F5.1_[T8C]_[T9A]_[A10C]_T5.1 (ssRNA)
# RNA: B1 RNA with C32A, U33A, U34A, C36A
# B18: Ic_S2_P5E.1_K5.1_C5.1_H5.1_A5.1_[T5A]_[T6C]_[A7G]_F5.1_[T8G]_[T9C]_[A10C]_T5.1 (ssRNA)
# RNA: B1 RNA with C32A, U33C, U34G, C35G
# B19: Ic_S2_P5E.1_K5.1_C5.1_H5.1_A5.1_[T6A]_[A7T]_F5.1_[T8C]_[T9C]_[A10T]_T5.1 (ssRNA)
# RNA: B1 RNA with C32U, U33A, C37U
# B20: Ic_S2_P5E.1_K5.1_C5.1_H5.1_A5.1_[T6G]_[A7T]_F5.1_[T8A]_[T9A]_T5.1 (ssRNA)
# RNA: B1 RNA with C32U, U33G, C35A, C36A, C37A
# B21: Ic_S2_P5E.1_K5.1_C5.1_H5.1_A5.1_[T5A]_F5.1_[T8C]_[T9G]_[A10C]_T5.1 (ssRNA)
# RNA: B1 RNA with C32A, U34A, C36G
# B22: Ic_S2_P5E.1_K5.1_C5.1_H5.1_A5.1_[T5A]_[T6A]_[A7T]_F5.1_[T9A]_T5.1 (ssRNA)
# RNA: B1 RNA with C32A, U33A, C35U, C36A, C37A
# B23: Ic_S2_P5E.1_K5.1_C5.1_H5.1_A5.1_[T6A]_[A7T]_F5.1_[T8C]_[T9G]_[A10G]_T5.1 (ssRNA)
# RNA: B1 RNA with C32U, U33A, C36G, C37G
# B24: Ic_S2_P5E.1_K5.1_C5.1_H5.1_A5.1_[A7C]_F5.1_[T9G]_[A10G]_T5.1 (ssRNA)
# RNA: B1 RNA with C32U, U34C, C35U, C36G, C37G
# B25: Ic_S2_P5E.1_K5.1_C5.1_H5.1_A5.1_[T5G]_[A7C]_F5.1_[T9C]_[A10G]_T5.1 (ssRNA)
# RNA: B1 RNA with C32G, U34C, C35U, C37G
# B26: Ic_S4_P3E.1_K3.1_C3.1_H3.1_A3.1_[T5G]_[A6C]_F3.1_[T7G]_[A8G]_T3.1 (ssRNA)
# RNA: UUUGACAACUGAUCGUUCUUUCUUGUAGCGGUUCUUUCUCGAUCAGUUGUCUUU
# B27: Ic_S4_P3E.1_K3.1_C3.1_H3.1_A3.1_[T5G]_[A6T]_F3.1_[T7G]_[A8T]_T3.1 (ssRNA)
# RNA: B26 RNA with C29U, G31U
# B28: Ic_S4_P3E.1_K3.1_C3.1_H3.1_A3.1_[T5G]_[A6C]_F3.1_[T7A]_[A8C]_T3.1 (ssRNA)
# RNA: B26 RNA with G30A, G31C
# B29: Ic_S4_P3E.1_K3.1_C3.1_H3.1_A3.1_[T5G]_[A6T]_F3.1_[T7A]_[A8T]_T3.1 (ssRNA)
# RNA: B26 RNA with C29U, G30A, G31U
# B30: Ic_S4_P3E.1_K3.1_C3.1_H3.1_A3.1_[T5C]_[A6C]_F3.1_[T7C]_T3.1 (ssRNA)
# RNA: B26 RNA with G28C, G30C, G31A
# B31: Ic_S4_P3E.1_K3.1_C3.1_H3.1_A3.1_[T5C]_[A6G]_F3.1_[T7G]_[A8C]_T3.1 (ssRNA)
# RNA: B26 RNA with G28C, C29G, G31C
# B32: Ic_S4_P3E.1_K3.1_C3.1_H3.1_A3.1_[T5C]_[A6G]_F3.1_[T7C]_[A8G]_T3.1 (ssRNA)
# RNA: B26 RNA with G28C, C29G, G30C
# B33: Ic_S4_P3E.1_K3.1_C3.1_H3.1_A3.1_[T5C]_[A6T]_F3.1_[T7G]_[A8C]_T3.1 (ssRNA)
# RNA: B26 RNA with G28C, C29U, G31C
# B34: Ic_S4_P3E.1_K3.1_C3.1_H3.1_A3.1_[T5G]_[A6C]_F3.1_[T7C]_T3.1 (ssRNA)
# RNA: B26 RNA with G30C, G31A
# B35: Ic_S4_P3E.1_K3.1_C3.1_H3.1_A3.1_[T5C]_[A6C]_F3.1_[T7A]_[A8T]_T3.1 (ssRNA)
# RNA: B26 RNA with G28C, G30A, G31U
# B36: Ic_S4_P3E.1_K3.1_C3.1_H3.1_A3.1_[T5G]_[A6C]_F3.1_[A8C]_T3.1 (ssRNA)
# RNA: B26 RNA with G30U, G31C
# B37: Ic_S4_P3E.1_K3.1_C3.1_H3.1_A3.1_[T5C]_[A6C]_F3.1_[T7C]_[A8T]_T3.1 (ssRNA)
# RNA: B26 RNA with G28C, G30C, G31U
# B38: Ic_S4_P3E.1_K3.1_C3.1_H3.1_A3.1_[T5G]_[A6C]_F3.1_[T7C]_[A8C]_T3.1 (ssRNA)
# RNA: B26 RNA with G30C, G31C
# B39: Ic_S4_P3E.1_K3.1_C3.1_H3.1_A3.1_[T5G]_[A6C]_F3.1_[T7A]_[A8G]_T3.1 (ssRNA)
# RNA: B26 RNA with G30A
# B40: Ic_S4_P3E.1_K3.1_C3.1_H3.1_A3.1_[T5C]_[A6C]_F3.1_[T7A]_[A8C]_T3.1 (ssRNA)
# RNA: B26 RNA with G28C, G30A, G31C
# B41: Ic_S4_P3E.1_K3.1_C3.1_H3.1_A3.1_[T5G]_[A6T]_F3.1_[T7G]_[A8C]_T3.1 (ssRNA)
# RNA: B26 RNA with C29U, G31C
# B42: Ic_S4_P3E.1_K3.1_C3.1_H3.1_A3.1_[T5C]_[A6C]_F3.1_[A8T]_T3.1 (ssRNA)
# RNA: B26 RNA with G28C, G30U, G31U
# B43: Ic_S4_P3E.1_K3.1_C3.1_H3.1_A3.1_[T5G]_[A6C]_F3.1_[T7G]_[A8C]_T3.1 (ssRNA)
# RNA: B26 RNA with G31C
# B44: Ic_S4_P3E.1_K3.1_C3.1_H3.1_A3.1_[T5G]_[A6C]_F3.1_[T7A]_[A8T]_T3.1 (ssRNA)
# RNA: B26 RNA with G30A, G31U
# B45: Ic_S4_P3E.1_K3.1_C3.1_H3.1_A3.1_[T5G]_[A6T]_F3.1_[T7A]_[A8C]_T3.1 (ssRNA)
# RNA: B26 RNA with C29U, G30A, G31C
# B46: Ic_S4_P3E.1_K3.1_C3.1_H3.1_A3.1_[T5C]_[A6T]_F3.1_[T7G]_[A8G]_T3.1 (ssRNA)
# RNA: B26 RNA with G28C, C29U
# B47: Ic_S4_P3E.1_K3.1_C3.1_H3.1_A3.1_[T5C]_[A6G]_F3.1_[T7C]_T3.1 (ssRNA)
# RNA: B26 RNA with G28C, C29G, G30C, G31A
# Target: T1, PUF4 RNA-binding domain
# Experiment: Mg; RNA-MaP; 20 mM Na-HEPES pH 7.4, 30 mM KOAc, 0.75 mM MgCl2, 0.1% Tween-20, 5% glycerol, 0.1 mg/mL BSA, 2 mM DTT; 25 C; 0.0125-409.6 nM protein
# Conditions: tags: N-His6-TEV cleaved; C-SNAP kept, Cy3B-labelled; label: tethered on chip by stalled RNA polymerase
row,Binder,Kd
1,UCUCUUUGCAUAUUGUCUCUU (ssRNA) [Ib_S1_P4E.1_K4.1_C4.1_H4.1_[T3C]_A4.1_F4.1_[A9G]_T4.1],1840 nM
2,UCUCUUUAUAUAUUAUCUCUU (ssRNA) [Ia_S1_P4E.1_K4.1_C4.1_H4.1_[G2A]_A4.1_F4.1_T4.1],14.1 nM
3,UCUCUUUAUAUAUUCUCUCUU (ssRNA) [Ib_S1_P4E.1_K4.1_C4.1_H4.1_[G2A]_A4.1_F4.1_[A9C]_T4.1],857 nM
4,UCUCUUUAUAUAUUUUCUCUU (ssRNA) [Ib_S1_P4E.1_K4.1_C4.1_H4.1_[G2A]_A4.1_F4.1_[A9T]_T4.1],413 nM
5,B1,149 nM
6,B2,543 nM
7,B3,819 nM
8,B4,389 nM
9,B5,342 nM
10,B6,463 nM
11,B7,315 nM
12,B8,82 nM
13,B9,558 nM
14,B10,26.1 nM
15,B11,13.5 nM
16,B12,126 nM
17,B13,129 nM
18,B14,52 nM
19,B15,228 nM
20,B16,64 nM
21,B17,128 nM
22,B18,> 2300 nM
23,B19,10.3 nM
24,B20,53.7 nM
25,B21,1050 nM
26,B22,2.21 nM
27,B23,49.1 nM

row,Binder,Kd
1,B24,23.5 nM
2,B25,706 nM
3,UCUCUUUGCAUAUUUUCUCUU (ssRNA) [Ib_S1_P4E.1_K4.1_C4.1_H4.1_[T3C]_A4.1_F4.1_[A9T]_T4.1],> 2300 nM
4,UCUCUUUAUAUAUUGUCUCUU (ssRNA) [Ib_S1_P4E.1_K4.1_C4.1_H4.1_[G2A]_A4.1_F4.1_[A9G]_T4.1],334 nM
5,B26,1270 nM
6,B27,100 nM
7,B28,243 nM
8,B29,52.9 nM
9,B30,487 nM
10,B31,1030 nM
11,B32,908 nM
12,B33,442 nM
13,B34,616 nM
14,B35,5.15 nM
15,B36,192 nM
16,B37,14.2 nM
17,B38,648 nM
18,B39,836 nM
19,B40,79.7 nM
20,B41,506 nM
21,B42,13.4 nM
22,B43,1710 nM
23,B44,35.8 nM
24,B45,404 nM
25,B46,1840 nM
26,B47,444 nM
